One may read the stoichiometry N as the number of molecules, sites or subunits per partner or assembly.

Experimental findings from PMC9223585, “Structural and Functional Insights into CP2c Transcription Factor Complexes” (International Journal of Molecular Sciences, 2022) are described below.

This data set concerns the molecule itself. In words: cross-linking + co-IP; DSP XL-WB: nuclear extracts of MDA-MB-231 cells, Benzonase, 2 mM DSP 30 min at room temperature, IP with CP2c, CP2b or PIAS1 antibodies, sequential Western blot with and without DTT. In general terms: In western blotting, separated proteins are transferred to a membrane and probed.

B1: CP2c (TFCP2), endogenous human (natural protein, human (endogenous in MDA-MB-231), UniProt Q12800-1 1-502, looked up)
chain: MAWALKLPLADEVIESGLVQDFDASLSGIGQELGAGAYSMSDVLALPIFKQEESSLPPDNENKILPFQYVLCAATSPAVKLHDETLTYLNQGQSYEIRMLDNRKLGELPEINGKLVKSIFRVVFHDRRLQYTEHQQLEGWRWNRPGDRILDIDIPMSVGIIDPRANPTQLNTVEFLWDPAKRTSVFIQVHCISTEFTMRKHGGEKGVPFRVQIDTFKENENGEYTEHLHSASCQIKVFKPKGADRKQKTDREKMEKRTPHEKEKYQPSYETTILTECSPWPEITYVNNSPSPGFNSSHSSFSLGEGNGSPNHQPEPPPPVTDNLLPTTTPQEAQQWLHRNRFSTFTRLFTNFSGADLLKLTRDDVIQICGPADGIRLFNALKGRMVRPRLTIYVCQESLQLREQQQQQQQQQQKHEDGDSNGTFFVYHAIYLEELTAVELTEKIAQLFSISPCQISQIYKQGPTGIHVLISDEMIQNFQEEACFILDTMKAETNDSYHIILK
notes: transcription factor CP2c (TFCP2, LBP-1c), endogenous in the human breast cancer line MDA-MB-231; both are human cells; also called α-CP2; LSF; source: endogenous, MDA-MB-231 nuclear and cytosolic lysate
With B1, the “stoichiometry N” value came to 4.
